The values that follow come from patent US8895526B2, “Identification of RNAI targets and use of RNAI for rational therapy of chemotherapy-resistant leukemia and other cancers” (Cold Spring Harbor Laboratory, priority 2009, dated 2014).

The test system of data set [1] is immortalized murine embryonic fibroblasts (Mef). Put plainly: Pooled negative selection RNAi screening (deep sequencing). To be noted: deep sequencing reads, on dox compared to initial representation. The data set is classed as cell-based. The text has this: (§1) In addition to the analysis of single shRNAs for inhibitory effects in vitro and in vivo, the combination of tet-on competent cancer models and tet-regulatable shRNA expression vectors allowing for monitoring shRNA expression through fluorescent and other reporter genes (e.g. TRMPV and derivates) facilitates pooled shRNA negative selection screening (FIG. 37). In such approaches a pool of over 1,000 shRNAs are retrovirally transduced into tet-on competent cancer models (here MLL/AF9+Nras AML) and selected for shRNA containing cells by either drug selection (e.g. G418) or fluorescence-activated cell sorting (FACS). Selected cell populations harboring a library of shRNAs then can be cultured in the absence or presence of doxycyline (off dox and on dox, respectively) or injected into syngeneic recipient mice that are either treated with doxycyline or left untreated.
(§2) The representation of each shRNA within the pool can be effectively assessed by deep sequencing of shRNA cassettes in a given cell population. For this, genomic DNA is extracted from leukemia cells containing the shRNA pool, and the shRNA guide or passenger strand (21-22 target gene specific nucleotides of the shRNA) by PCR using primers specific for common sequences flanking the gene specific part of the shRNA (e.g. miR30 19 nt loop and miR30 common 3′ sequence). The primers also contain 5′-adapters required for deep sequencing (e.g. for Illumina/Solexa sequencing primers are p5+mir3: 5′-[…]-3′ (SEQ ID NO: 215) and p7+Loop: 5′-[…]-3′ (SEQ ID NO: 216)). Deep sequencing is subsequently performed using a primer binding the flanking nucleotide sequence next to the target gene specific part of the shRNA (for Illumina/Solexa platforms the primer is mir30EcoR1Seq: 5′-TAGCCCCTTGAATTCCGA GGCAGTAGGCA-3′ (SEQ ID NO: 217)).
(§3) The use of shRNA vectors that allow for monitoring of shRNA expression through fluorescent and other reporter genes (e.g. TRMPV) in combination with tet-on competent mouse models facilitates the isolation of pure shRNA expressing cell populations (e.g. by FACS, for TRMPV by sorting of Venus/dsRed double positive cells (FIG. 38). This selection of shRNA expressing cells prior to DNA isolation strongly reduces the background caused by cell populations with insufficient shRNA induction, which are predicted to contain genomic representation of the whole shRNA library without shRNA specific shifts in representation. The final readout is based on the comparison of shRNA representation (i.e. deep sequencing read numbers) before the assay (t0) or from cell populations left without doxycycline treatment (off dox) to those where shRNA were induced and cells subsequently sorted for shRNA expressing cells (on dox). shRNA with inhibitory effects are predicted to loose representation (show less reads) on dox compared to t0 and off dox.
(§4) This pooled is RNAi screening strategy can be applied to rapidly survey inhibitory effects of large pools of shRNAs (˜1000 at a time) in different tet-on competent cancer models and normal control cells (FIG. 39). For example, a pool of 1166 shRNAs targeting 836 predominantly druggable genes associated with MLL fusion proteins in human leukemia and mouse models of MLL/AF9-induced AML (MLL cure library) was analyzed in pooled negative selection screening in tet-on competent MLL/AF9+Nras AML and immortalized murine embryonic fibroblasts (Mef) in parallel. To establish and validate this screening approach, the pool also contained 64 control shRNAs each of which have been previously analyzed for inhibitory effects in both AML cells and Mefs using the same experimental system (FIG. 40).
(§5) After pooling of 1166 experimental and 64 control shRNAs the presence of shRNAs was verified by deep sequencing of shRNAs within the plasmid vector pool (FIG. 41). […]

For data set [2], the system named is tet-on competent MLL/AF9+Nras AML. The description is as above. Type of data set: cell-based, mouse. To be noted: deep sequencing reads, On Dox compared to T0.
From the text: as §1, §2, §3, §4, §5

B1: Pygl.1463: shRNA, SEQ ID NO: 171 (nucleic acid)
chain: TGCTGTTGACAGTGAGCGCACCAGACAAGTTCCAGAATAATAGTGAAGCCACAGATGTATTATTCTGGAACTTGTCTGGTTTGCCTACTGCCTCGGA
Take B1: in data set [1], the “Fold depletion in Mef” value is on record as 1.94 Fold. Moreover, the “Fold depletion in AML” value in data set [2] was found to be 118.65 Fold.

B2: Ap1s2.2744: shRNA, SEQ ID NO: 90 (nucleic acid)
chain: TGCTGTTGACAGTGAGCGACAGGAGCAAGATGAGTTACTATAGTGAAGCCACAGATGTATAGTAACTCATCTTGCTCCTGCTGCCTACTGCCTCGGA
B2: the “Fold depletion in Mef” value in data set [1] is 2.31 Fold. In data set [2], the “Fold depletion in AML” value worked out at 57.84 Fold.

B3: Pitpnm1.561: shRNA, SEQ ID NO: 165 (nucleic acid)
chain: TGCTGTTGACAGTGAGCGCCAGGATGCTTATCAAGGAGTATAGTGAAGCCACAGATGTATACTCCTTGATAAGCATCCTGATGCCTACTGCCTCGGA
Take B3: the “Fold depletion in Mef” value in data set [1] is reported as 0.27 Fold. In addition, the “Fold depletion in AML” value in data set [2] came out at 60.72 Fold.

B4: Gas1.2159: shRNA, SEQ ID NO: 128 (nucleic acid)
chain: TGCTGTTGACAGTGAGCGACCCGAAATTACAACTGCATTATAGTGAAGCCACAGATGTATAATGCAGTTGTAATTTCGGGGTGCCTACTGCCTCGGA
Consider B4, for which the “Fold depletion in Mef” value in data set [1] was determined as 0.81 Fold. Also, in data set [2], the “Fold depletion in AML” value was determined as 132.34 Fold.

B5: Thyn1.315: shRNA, SEQ ID NO: 186 (nucleic acid)
chain: TGCTGTTGACAGTGAGCGCAAGCAACTACTGGCTGATGAATAGTGAAGCCACAGATGTATTCATCAGCCAGTAGTTGCTTATGCCTACTGCCTCGGA
As for B5, in data set [1], the “Fold depletion in Mef” value worked out at 1.04 Fold. In data set [2], the “Fold depletion in AML” value stood at 145.53 Fold.

B6: L1cam.5255: shRNA, SEQ ID NO: 137 (nucleic acid)
chain: TGCTGTTGACAGTGAGCGCCAGAATTATAACAGGCAAATATAGTGAAGCCACAGATGTATATTTGCCTGTTATAATTCTGATGCCTACTGCCTCGGA
On to B6, for which the “Fold depletion in Mef” value in data set [1] turned out to be 1.26 Fold. For the same molecule, in data set [2], the “Fold depletion in AML” value worked out at 31.42 Fold.

B7: Fn1.4143: shRNA, SEQ ID NO: 121 (nucleic acid)
chain: TGCTGTTGACAGTGAGCGCCAGTAGGATACTACACAGTTATAGTGAAGCCACAGATGTATAACTGTGTAGTATCCTACTGATGCCTACTGCCTCGGA
In the case of B7, the “Fold depletion in Mef” value in data set [1] is given as 0.84 Fold. In addition, in data set [2], the “Fold depletion in AML” value is listed as 36.54 Fold.

B8: Pctk1.948: shRNA, SEQ ID NO: 161 (nucleic acid)
chain: TGCTGTTGACAGTGAGCGCCCGGGAAGTATCCCTGCTTAATAGTGAAGCCACAGATGTATTAAGCAGGGATACTTCCCGGATGCCTACTGCCTCGGA
In the case of B8, the “Fold depletion in Mef” value in data set [1] is 0.27 Fold. Besides, the “Fold depletion in AML” value in data set [2] stood at 123.76 Fold.

B9: Tnfsf12.1204: shRNA, SEQ ID NO: 187 (nucleic acid)
chain: TGCTGTTGACAGTGAGCGCAATGGATATTAAAGAGAATAATAGTGAAGCCACAGATGTATTATTCTCTTTAATATCCATTTTGCCTACTGCCTCGGA
Consider B9, for which the “Fold depletion in Mef” value in data set [1] amounted to 0.93 Fold. The “Fold depletion in AML” value in data set [2] is listed as 36.03 Fold.

B10: Cerk.4466: shRNA, SEQ ID NO: 108 (nucleic acid)
chain: TGCTGTTGACAGTGAGCGCCTGGTATATTTGAGAAGACAATAGTGAAGCCACAGATGTATTGTCTTCTCAAATATACCAGATGCCTACTGCCTCGGA
Take B10: the “Fold depletion in Mef” value in data set [1] was 0.61 Fold. The “Fold depletion in AML” value in data set [2] is reported as 27.79 Fold.

B11: Cd6.520: shRNA, SEQ ID NO: 102 (nucleic acid)
chain: TGCTGTTGACAGTGAGCGAGAGCCACTTCTGGGAACACAATAGTGAAGCCACAGATGTATTGTGTTCCCAGAAGTGGCTCCTGCCTACTGCCTCGGA
In the case of B11, the “Fold depletion in Mef” value in data set [1] amounted to 2.28 Fold. For the same molecule, the “Fold depletion in AML” value in data set [2] turned out to be 28.66 Fold.

B12: Dsp.6155: shRNA, SEQ ID NO: 114 (nucleic acid)
chain: TGCTGTTGACAGTGAGCGCCAGGAAGTTCTTCGATCAATATAGTGAAGCCACAGATGTATATTGATCGAAGAACTTCCTGTTGCCTACTGCCTCGGA
In the case of B12, in data set [1], the “Fold depletion in Mef” value amounted to 0.60 Fold. The “Fold depletion in AML” value in data set [2] is reported as 242.96 Fold.

B13: Mef2c.1872: shRNA, SEQ ID NO: 141 (nucleic acid)
chain: TGCTGTTGACAGTGAGCGCTGCCTCAGTGATACAGTATAATAGTGAAGCCACAGATGTATTATACTGTATCACTGAGGCAATGCCTACTGCCTCGGA
For B13, in data set [1], the “Fold depletion in Mef” value is on record as 0.77 Fold. Also, the “Fold depletion in AML” value in data set [2] was 63.15 Fold.

B14: Cx3cr1.1223: shRNA, SEQ ID NO: 111 (nucleic acid)
chain: TGCTGTTGACAGTGAGCGACTGCATCTTATGTGCAAGAAATAGTGAAGCCACAGATGTATTTCTTGCACATAAGATGCAGGTGCCTACTGCCTCGGA
Consider B14, for which the “Fold depletion in Mef” value in data set [1] is 0.69 Fold. Moreover, in data set [2], the “Fold depletion in AML” value is 12.98 Fold.

B15: Gart.2470: shRNA, SEQ ID NO: 126 (nucleic acid)
chain: TGCTGTTGACAGTGAGCGCAAGAATCTGATTGAAACCATATAGTGAAGCCACAGATGTATATGGTTTCAATCAGATTCTTATGCCTACTGCCTCGGA
Consider B15, for which, in data set [1], the “Fold depletion in Mef” value is 0.67 Fold. Further, the “Fold depletion in AML” value in data set [2] was determined as 146.15 Fold.

B16: Fosb.1165: shRNA, SEQ ID NO: 123 (nucleic acid)
chain: TGCTGTTGACAGTGAGCGCCAGGCGGAAACTGATCAGCTTTAGTGAAGCCACAGATGTAAAGCTGATCAGTTTCCGCCTGATGCCTACTGCCTCGGA
With B16, the “Fold depletion in Mef” value in data set [1] came out at 3.61 Fold. In addition, the “Fold depletion in AML” value in data set [2] was determined as 13.12 Fold.

B17: Slc22a4.2223: shRNA, SEQ ID NO: 181 (nucleic acid)
chain: TGCTGTTGACAGTGAGCGCAAACGTATAAATGCTATCCAATAGTGAAGCCACAGATGTATTGGATAGCATTTATACGTTTATGCCTACTGCCTCGGA
Turning to B17, the “Fold depletion in Mef” value in data set [1] was 3.41 Fold. Besides, the “Fold depletion in AML” value in data set [2] is on record as 41.21 Fold.

B18: Cpd.1693: shRNA, SEQ ID NO: 109 (nucleic acid)
chain: TGCTGTTGACAGTGAGCGCACCAGGTGAACCAGAATTTAATAGTGAAGCCACAGATGTATTAAATTCTGGTTCACCTGGTTTGCCTACTGCCTCGGA
B18: in data set [1], the “Fold depletion in Mef” value was 3.91 Fold. The “Fold depletion in AML” value in data set [2] amounted to 50.07 Fold.

B19: Fn3k.298: shRNA, SEQ ID NO: 122 (nucleic acid)
chain: TGCTGTTGACAGTGAGCGAAAGAGCCTTAGCAGTCAGGCATAGTGAAGCCACAGATGTATGCCTGACTGCTAAGGCTCTTCTGCCTACTGCCTCGGA
With B19, the “Fold depletion in Mef” value in data set [1] came out at 2.82 Fold. Besides, the “Fold depletion in AML” value in data set [2] was 103.54 Fold.

B20: Fgd4.821: shRNA, SEQ ID NO: 119 (nucleic acid)
chain: TGCTGTTGACAGTGAGCGAAAGGAGACTAATGAACAGAAATAGTGAAGCCACAGATGTATTTCTGTTCATTAGTCTCCTTCTGCCTACTGCCTCGGA
For the molecule B20, the “Fold depletion in Mef” value in data set [1] is reported as 2.12 Fold. Besides, the “Fold depletion in AML” value in data set [2] was 25.66 Fold.

B21: Adam23.5211: shRNA, SEQ ID NO: 89 (nucleic acid)
chain: TGCTGTTGACAGTGAGCGCTACGACCACGTCAGTTACAAATAGTGAAGCCACAGATGTATTTGTAACTGACGTGGTCGTATTGCCTACTGCCTCGGA
For B21, the “Fold depletion in Mef” value in data set [1] was found to be 0.30 Fold. The “Fold depletion in AML” value in data set [2] is listed as 40.11 Fold.

B22: Arf3.1357: shRNA, SEQ ID NO: 91 (nucleic acid)
chain: TGCTGTTGACAGTGAGCGACCCTTCTGTGTTGGTGAGATATAGTGAAGCCACAGATGTATATCTCACCAACACAGAAGGGCTGCCTACTGCCTCGGA
B22: in data set [1], the “Fold depletion in Mef” value was found to be 0.86 Fold. For the same molecule, the “Fold depletion in AML” value in data set [2] was found to be 94.96 Fold.
